B1: 4-92 (VHH)
VHH: QVQLQESGGGLVQPGGSLRLSCAASGFAFSSRAMSWVRQAPGKGLEWVSDINYDGAWTYYADSVKGRFTISRDNAKNTLYLQMNSLKPEDTAVYFCTDPWSIDGWGQGTQVTVSS
notes: Alpaca VHH from the phage library; not shown: one his tag and one HA tag at the C-terminus
B2: 5-26 (VHH)
VHH: QVQLQESGGGLVQPGGSLRLSCAASGFTLDLYAIGWFRQAPGKERERVSCISSGGSTNYAESVKGRFTISRDNGKNTVYLQMNSLKPEDTAVYYCVRSVPSCGSYYFPPRNMNYWGKGTQVTVSS
notes: as for B1
B3: 5-09 (VHH)
VHH: QVQLQESGGGLVQPGGSLRLSCAASGFTLDDYAIGWFRQAPGKERERISCISSGGNTNYADSVKGRFTLSRDNAKNTVYLQMYSLKPEDTAVYYCTASIPSCASYYFPPRNMDYWGKGTQVTVSS
notes: also called 5-9; not shown: one his tag and one HA tag at the C-terminus
B4: hu5-26 ROR1 VHH CAR (other)
chain: QVQLVESGGGLVQPGGSLRLSCAASGFTLDLYAIGWFRQAPGKERGLVSCISSGGSTNYAESVKGRFTISRDNSKNTVYLQMNSLRSEDTAVYYCVRSVPSCGSYYFPPRNMNYWGQGTLVTVSSIEVMYPPPYLDNEKSNGTIIHVKGKHLCPSPLFPGPSKPFWVLVVVGGVLACYSLLVTVAFIIFWVKRGRKKLLYIFKQPFMRPVQTTQEEDGCSCRFPEEEEGGCELRVKFSRSADAPAYKQGQNQLYNELNLGRREEYDVLDKRRGRDPEMGGKPRRKNPQEGLYNELQKDKMAEAYSEIGMKGERRRGKGHDGLYQGLSTATKDTYDALHMQALPPR
B5: 5-95 (VHH)
VHH: QVQLQESGGGLVQPGGSLRLSCAASGFTFSTYSMTWVRQAPGKGLEWVSDINSGGSVAYYTDSVKGRFTASRDNAKNTLYLQMNSLKPEDTAVYYCYEGGYHGGSPRGHGTQVTVSS
notes: not shown: one his tag and one HA tag at the C-terminus
B6: VHH1 (VHH)
VHH: QVQLVESGGGLVQPGGSLRLSCAASGFTFSDTWMNWVRQAPGKGLYWISAINPDGGNTAYADSVKGRFTISRDNAKNMVYLQMDNLRPEDTAMYYCAKGWVRLPDPDLVRGQGTQVTVSS
notes: Non-specific control VHH; also called non-specific VHH; negative control VHH1
B7: VHH2 (VHH)
VHH: QVQLVESGGGLVQAGGSLRLSCAASGSIFSINAMAWYRHRPGMQRERVAAISSGGTTSYADSVKGRFTISRDNARDTLYLQMNSLKPEDTAMYYCAACPGDYTSTICNSDGMDYWGKGTLVTVSS
notes: Non-specific control VHH; also called non-specific VHH; negative control VHH2

Assays:
[1] = target: T1, ROR1 expressed on cells (A549, MB231, JeKo-1, MEC-ROR1) (UniProt Q01973 30-937); assay: flow cytometry on A549 cells, 1 µg/ml, anti-HA APC
T1 construct: whole, on cells; also called ROR1-expressing cell lines; ROR1-positive cells
T1 sequence (Q01973 30-937): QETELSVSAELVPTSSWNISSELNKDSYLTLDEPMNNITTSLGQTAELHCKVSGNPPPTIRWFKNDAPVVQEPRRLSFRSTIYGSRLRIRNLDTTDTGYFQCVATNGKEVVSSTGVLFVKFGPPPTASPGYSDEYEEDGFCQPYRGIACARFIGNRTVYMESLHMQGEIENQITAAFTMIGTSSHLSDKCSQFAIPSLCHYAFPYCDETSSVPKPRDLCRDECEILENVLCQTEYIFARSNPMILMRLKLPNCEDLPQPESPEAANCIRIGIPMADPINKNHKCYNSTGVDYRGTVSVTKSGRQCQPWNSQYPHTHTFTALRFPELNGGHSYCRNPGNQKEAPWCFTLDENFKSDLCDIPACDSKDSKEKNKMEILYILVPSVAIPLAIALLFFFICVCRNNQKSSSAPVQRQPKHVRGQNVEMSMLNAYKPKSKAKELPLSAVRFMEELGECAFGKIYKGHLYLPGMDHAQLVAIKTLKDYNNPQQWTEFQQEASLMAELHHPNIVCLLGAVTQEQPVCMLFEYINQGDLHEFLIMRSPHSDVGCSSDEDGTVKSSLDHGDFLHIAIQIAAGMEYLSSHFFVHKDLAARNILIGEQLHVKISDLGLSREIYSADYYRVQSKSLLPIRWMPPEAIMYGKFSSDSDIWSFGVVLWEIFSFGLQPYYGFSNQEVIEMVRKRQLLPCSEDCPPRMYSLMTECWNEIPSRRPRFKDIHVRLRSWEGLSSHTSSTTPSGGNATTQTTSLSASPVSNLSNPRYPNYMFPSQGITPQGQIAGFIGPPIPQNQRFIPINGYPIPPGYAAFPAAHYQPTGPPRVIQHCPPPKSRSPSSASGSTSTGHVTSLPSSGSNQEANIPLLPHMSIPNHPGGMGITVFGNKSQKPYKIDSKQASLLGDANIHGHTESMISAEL

[2] = target: T1, ROR1 expressed on cells (A549, MB231, …); assay: flow cytometry on MB231 cells, 1 µg/ml, anti-HA APC
[3] = target: T1, ROR1 expressed on cells (A549, MB231, …); assay: flow cytometry on JeKo-1 cells, 1 µg/ml, anti-HA APC
[4] = target: T1, ROR1 expressed on cells (A549, MB231, …); assay: cell-based or functional assay
recombinant ROR1 protein = target: T2, recombinant ROR1 protein (UniProt Q01973 30-403, limits assumed); assay: ELISA, OD450 (FIG. 6C)
T2 construct: also called his-tagged ROR1; not shown: his tag
T2 sequence (Q01973 30-403 limits assumed): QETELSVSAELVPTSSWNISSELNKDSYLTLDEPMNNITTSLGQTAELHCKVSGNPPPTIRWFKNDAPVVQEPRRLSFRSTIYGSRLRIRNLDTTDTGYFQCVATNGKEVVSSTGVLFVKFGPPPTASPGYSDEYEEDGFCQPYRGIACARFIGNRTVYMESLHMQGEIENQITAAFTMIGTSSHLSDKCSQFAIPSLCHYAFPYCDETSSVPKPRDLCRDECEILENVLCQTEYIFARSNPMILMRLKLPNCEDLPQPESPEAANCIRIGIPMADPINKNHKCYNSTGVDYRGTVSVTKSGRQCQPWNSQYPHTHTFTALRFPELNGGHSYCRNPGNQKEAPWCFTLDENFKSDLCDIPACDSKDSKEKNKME

Row | Binder | proportion of binding cells [1] [%] | proportion of binding cells [2] [%] | proportion of binding cells [3] [%] | proportion of target cells (surviving, GFP-labeled) after 24 hours, effector-to-target ratio 1:1, MB231 [4] [%] | proportion of target cells (surviving, GFP-labeled) after 24 hours, effector-to-target ratio 1:1, MEC-ROR1 [4] [%] | binding result (recombinant ROR1 protein)
1 | B1 | 34.6 | 74.3 | 2.96 | – | – | –
2 | B2 | 97 | 96.8 | 99.7 | – | – | –
3 | B3 | 18.5 | 61.7 | 1.9 | – | – | –
4 | B4 | – | – | – | 2.96 | 1.93 | –
5 | B5 | 11.8 | 53.3 | 1.18 | – | – | –
6 | B6 | – | – | – | – | – | no binding
7 | B7 | – | – | – | – | – | no binding

Source: patent publication US20260217821A1 (SPH BIOTHERAPEUTICS SHANGHAI, published 2026)
